Target: mutant murine LIGHT (a.a. 79-82, EKLI, deleted), expressed on the cell surface (murine) (UniProt Q9QYH9)
Assay: cell-based or functional assay

LTβR-human Ig (Fc fusion), sequence (P50284 31-223): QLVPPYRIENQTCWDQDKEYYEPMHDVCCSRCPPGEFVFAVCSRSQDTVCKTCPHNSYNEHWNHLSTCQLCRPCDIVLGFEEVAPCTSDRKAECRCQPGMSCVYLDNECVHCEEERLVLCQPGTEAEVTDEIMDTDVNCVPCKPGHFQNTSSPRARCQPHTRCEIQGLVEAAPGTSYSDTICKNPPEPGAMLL
mutant murine LIGHT (a.a. 79-82, EKLI, deleted), expressed on the cell surface (murine), sequence (Q9QYH9 other isoform, or with tags, fused parts or gaps mutant limits assumed): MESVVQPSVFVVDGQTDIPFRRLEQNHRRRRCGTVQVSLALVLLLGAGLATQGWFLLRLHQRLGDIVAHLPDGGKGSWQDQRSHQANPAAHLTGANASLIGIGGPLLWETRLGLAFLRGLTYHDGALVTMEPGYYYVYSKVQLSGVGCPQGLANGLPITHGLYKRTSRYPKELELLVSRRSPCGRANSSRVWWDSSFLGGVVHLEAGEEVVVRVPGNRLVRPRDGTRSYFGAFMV

## LTβR-human Ig (Fc fusion)
  Incidence of tumor growth (Percentage), 10^6 Ag104L^d-LIGHT^m in C3B6F1 mice treated with LTβR-Ig: 100 % (6/6 mice)

Source: US20090092640A1
